Data taken from patent US11819556B2, “Stabilized compositions of radionuclides and uses thereof” (RayzeBio, Inc., priority 2021, dated 2023).

Test: Radioactivity concentration optimization: radio-TLC purity
Type: physicochemical
Conditions: 100 mM sodium ascorbate pH 5.80, 0.05 mg/ml DTPA, 25° C.
Procedure: The mixture was kept at room temperature (25° C.) and protected from light to prevent photodegradation. At different time points, purity of [^225Ac]Ac-DOTA-TATE in the formulated dose were measured by radio-TLC as described in the table below: […]

(2,2′,2″-(10-(2-4(R)-1-(((4R,7S,10S,13R,16S,19R)-13-((1H-indol-3-yl)methyl)-10-(4-aminobutyl)-4-(((1S,2R)-1-carboxy-2-hydroxypropyl)carbamoyl)-16-(4-hydroxybenzyl)-7-((R)-1-hydroxyethyl)-6,9,12,15,18-pentaoxo-1,2-dithia-5,8,11,14,17-pentaazacycloicosan-19-yl)amino)-1-oxo-3-phenylpropan-2-yl)amino)-2-oxoethyl)-1,4,7,10-tetraazacyclododecane-1,4,7-triyl)triacetate; actinium-225(3+)) [[^225Ac]Ac-DOTA-TATE]
Percentage of ^225Ac present in [^225Ac]Ac-DOTA-TATE (15 μCi/ml, 0 hour): 99.37% | Percentage of ^225Ac present in [^225Ac]Ac-DOTA-TATE (15 μCi/ml, 24 hours): 96.92% | Percentage of ^225Ac present in [^225Ac]Ac-DOTA-TATE (15 μCi/ml, 48 hours): 96.08% | Percentage of ^225Ac present in [^225Ac]Ac-DOTA-TATE (15 μCi/ml, 72 hours): 98.74% | Percentage of ^225Ac present in [^225Ac]Ac-DOTA-TATE (15 μCi/ml, 96 hours): 94.83% | Percentage of ^225Ac present in [^225Ac]Ac-DOTA-TATE (15 μCi/ml, 120 hours): 93.49% | Percentage of ^225Ac present in [^225Ac]Ac-DOTA-TATE (32 μCi/ml, 0 hour): 99.39% | Percentage of ^225Ac present in [^225Ac]Ac-DOTA-TATE (32 μCi/ml, 24 hours): 97.92% | Percentage of ^225Ac present in [^225Ac]Ac-DOTA-TATE (32 μCi/ml, 48 hours): 97.13% | Percentage of ^225Ac present in [^225Ac]Ac-DOTA-TATE (32 μCi/ml, 72 hours): 95.31% | Percentage of ^225Ac present in [^225Ac]Ac-DOTA-TATE (32 μCi/ml, 96 hours): 92.52% | Percentage of ^225Ac present in [^225Ac]Ac-DOTA-TATE (32 μCi/ml, 120 hours): 85.90% | Percentage of ^225Ac present in [^225Ac]Ac-DOTA-TATE (68 μCi/ml, 0 hour): 99.06% | Percentage of ^225Ac present in [^225Ac]Ac-DOTA-TATE (68 μCi/ml, 24 hours): 98.22% | Percentage of ^225Ac present in [^225Ac]Ac-DOTA-TATE (68 μCi/ml, 48 hours): 95.93% | Percentage of ^225Ac present in [^225Ac]Ac-DOTA-TATE (68 μCi/ml, 72 hours): 95.36% | Percentage of ^225Ac present in [^225Ac]Ac-DOTA-TATE (68 μCi/ml, 96 hours): 86.92% | Percentage of ^225Ac present in [^225Ac]Ac-DOTA-TATE (126 μCi/ml, 0 hour): 99.11% | Percentage of ^225Ac present in [^225Ac]Ac-DOTA-TATE (126 μCi/ml, 24 hours): 95.77% | Percentage of ^225Ac present in [^225Ac]Ac-DOTA-TATE (126 μCi/ml, 48 hours): 84.99% | Percentage of ^225Ac present in [^225Ac]Ac-DOTA-TATE (301 μCi/ml, 0 hour): 99.09% | Percentage of ^225Ac present in [^225Ac]Ac-DOTA-TATE (301 μCi/ml, 24 hours): 97.53% | Percentage of ^225Ac present in [^225Ac]Ac-DOTA-TATE (301 μCi/ml, 48 hours): 88.78% | Percentage of ^225Ac present in [^225Ac]Ac-DOTA-TATE (550 μCi/ml, 0 hour): 98.87% | Percentage of ^225Ac present in [^225Ac]Ac-DOTA-TATE (550 μCi/ml, 24 hours): 97.04% | Percentage of ^225Ac present in [^225Ac]Ac-DOTA-TATE (550 μCi/ml, 48 hours): 85.63%
